Data as given in the supplement of paper PMC11246515.
± gives the standard deviation of the averaged measurements.

Assay: total protein half-life in vivo (active degradation + dilution); higher = more stable protein
[1] = E. coli NCM3722 delta-clpP delta-lon delta-hslV, growth: N-lim chemostat, doubling time 6 h
[2] = E. coli NCM3722 delta-clpP, growth: N-lim chemostat, doubling time 6 h
[3] = E. coli NCM3722 delta-hslV, growth: N-lim chemostat, doubling time 6 h
[4] = E. coli NCM3722 delta-lon, growth: N-lim chemostat, doubling time 6 h
[5] = E. coli NCM3722 delta-smpB, growth: N-lim chemostat, doubling time 6 h
[6] = wild type E. coli NCM3722, growth: C-lim chemostat, doubling time 3 h
[7] = wild type E. coli NCM3722, growth: C-lim chemostat, doubling time 6 h
[8] = wild type E. coli NCM3722, growth: C-lim chemostat, doubling time 12 h
[9] = wild type E. coli NCM3722, growth: N-lim chemostat, doubling time 6 h
[10] = wild type E. coli NCM3722, growth: N-lim chemostat, doubling time 12 h
[11] = wild type E. coli NCM3722, growth: P-lim chemostat, doubling time 6 h
[12] = wild type E. coli NCM3722, growth: P-lim chemostat, doubling time 12 h

| Sequence | total protein half-life in vivo [1] | total protein half-life in vivo [2] | total protein half-life in vivo [3] | total protein half-life in vivo [4] | total protein half-life in vivo [5] | total protein half-life in vivo [6] | total protein half-life in vivo [7] | total protein half-life in vivo [8] | total protein half-life in vivo [9] | total protein half-life in vivo [10] | total protein half-life in vivo [11] | total protein half-life in vivo [12] |
| --- | --- | --- | --- | --- | --- | --- | --- | --- | --- | --- | --- | --- |
| MKWLCSVGIAVSLALQPALADDLFGNHPLTPEARDAFVTELLKKMTVDEKIGQLRLISVGPDNPKEAIREMIKDGQVGAIFNTVTRQDIRAMQDQVMELSRLKIPLFFAYDVLHGQRTVFPISLGLASSFNLDAVKTVGRVSAYEAADDGLNMTWAPMVDVSRDPRWGRASEGFGEDTYLTSTMGKTMVEAMQGKSPADRYSVMTSVKHFAAYGAVEGGKEYNTVDMSPQRLFNDYMPPYKAGLDAGSGAVMVALNSLNGTPATSDSWLLKDVLRDQWGFKGITVSDHGAIKELIKHGTAADPEDAVRVALKSGINMSMSDEYYSKYLPGLIKSGKVTMAELDDAARHVLNVKYDMGLFNDPYSHLGPKESDPVDTNAESRLHRKEAREVARESLVLLKNRLETLPLKKSATIAVVGPLADSKRDVMGSWSAAGVADQSVTVLTGIKNAVGENGKVLYAKGANVTSDKGIIDFLNQYEEAVKVDPRSPQEMIDEAVQTAKQSDVVVAVVGEAQGMAHEASSRTDITIPQSQRDLIAALKATGKPLVLVLMNGRPLALVKEDQQADAILETWFAGTEGGNAIADVLFGDYNPSGKLPMSFPRSVGQIPVYYSHLNTGRPYNADKPNKYTSRYFDEANGALYPFGYGLSYTTFTVSDVKLSAPTMKRDGKVTASVQVTNTGKREGATVVQMYLQDVTASMSRPVKQLKGFEKITLKPGETQTVSFPIDIEALKFWNQQMKYDAEPGKFNVFIGTDSARVKKGEFELL | 6.82 ± 0.31 h | 6.82 ± 0.92 h | 6.51 ± 0.073 h | 6.84 ± 0.088 h | 5.91 ± 0.13 h | 3.14 ± 0.092 h | 6.17 ± 0.12 h | 14.2 ± 1.2 h | 6.21 ± 0.43 h | 13.9 ± 0.67 h | 6.21 ± 0.027 h | 14.5 ± 1.1 h |
| MKYKLLPCLLAIFLTGCDRTEVTLSFTPEMASFSNEFDFDPLRGPVKDFTQTLMDEQGEVTKRVSGTLSEEGCFDSLELLDLENNTVVALVLDANYYRDAETLEKRVRLQGKCQLAELPSAGVSWETDDNGFVIKASSKQMQMEYRYDDQGYPLGKTTKSNDKTLSVSATPSTDPIKKLDYTAVTLLNNQRVGNVKQSCEYDSHANPVDCQLIIVDEGVKPAVERVYTIKNTIDYY | 2.15 ± 0.28 h | 2 ± 0.022 h | 2.16 ± 0.13 h | 1.87 h | 1.81 ± 0.19 h | 1.64 ± 0.1 h | 2.38 ± 0.077 h | 2.85 ± 0.52 h | 2.24 ± 0.56 h | 2.51 ± 0.27 h | 2.13 ± 0.32 h | 3.98 ± 0.97 h |
| MKYQQLENLESGWKWKYLVKKHREGELITRYIEASAAQEAVDVLLSLENEPVLVNGWIDKHMNPELVNRMKQTIRARRKRHFNAEHQHTRKKSIDLEFIVWQRLAGLAQRRGKTLSETIVQLIEDAENKEKYANKMSSLKQDLQALLGKE [P0A8N0] |  | 5.544 ± 0.014 h | 4.69 ± 0.85 h | 5.46 ± 0.53 h | 4.27 ± 1.1 h | 3.13 ± 0.038 h | 5.74 ± 0.2 h | 10.9 ± 5.6 h | 3.21 ± 1.6 h | 10.7 ± 5.8 h |  | 9.592 ± 0.066 h |
| MLAFLNQVRKPTLDLPLEVRRKMWFKPFMQSYLVVFIGYLTMYLIRKNFNIAQNDMISTYGLSMTQLGMIGLGFSITYGVGKTLVSYYADGKNTKQFLPFMLILSAICMLGFSASMGSGSVSLFLMIAFYALSGFFQSTGGSCSYSTITKWTPRRKRGTFLGFWNISHNLGGAGAAGVALFGANYLFDGHVIGMFIFPSIIALIVGFIGLRYGSDSPESYGLGKAEELFGEEISEEDKETESTDMTKWQIFVEYVLKNKVIWLLCFANIFLYVVRIGIDQWSTVYAFQELKLSKAVAIQGFTLFEAGALVGTLLWGWLSDLANGRRGLVACIALALIIATLGVYQHASNEYIYLASLFALGFLVFGPQLLIGVAAVGFVPKKAIGAADGIKGTFAYLIGDSFAKLGLGMIADGTPVFGLTGWAGTFAALDIAAIGCICLMAIVAVMEERKIRREKKIQQLTVA [P0AGC0] |  |  |  |  |  | 1.74 ± 0.042 h | 1.96 ± 0.031 h | 3.78 ± 2.4 h |  |  |  |  |
| MLDAQTIATVKATIPLLVETGPKLTAHFYDRMFTHNPELKEIFNMSNQRNGDQREALFNAIAAYASNIENLPALLPAVEKIAQKHTSFQIKPEQYNIVGEHLLATLDEMFSPGQEVLDAWGKAYGVLANVFINREAEIYNENASKAGGWEGTRDFRIVAKTPRSALITSFELEPVDGGAVAEYRPGQYLGVWLKPEGFPHQEIRQYSLTRKPDGKGYRIAVKREEGGQVSNWLHNHANVGDVVKLVAPAGDFFMAVADDTPVTLISAGVGQTPMLAMLDTLAKAGHTAQVNWFHAAENGDVHAFADEVKELGQSLPRFTAHTWYRQPSEADRAKGQFDSEGLMDLSKLEGAFSDPTMQFYLCGPVGFMQFTAKQLVDLGVKQENIHYECFGPHKVL | 2.41 ± 0.082 h | 1.52 ± 0.25 h | 1.56 ± 0.032 h | 1.85 ± 0.057 h | 1.75 ± 0.062 h | 2.76 ± 0.13 h | 3.62 ± 0.29 h | 5.61 ± 0.94 h | 1.79 ± 0.19 h | 2.36 ± 0.053 h | 4.51 ± 0.079 h | 7.88 ± 1.2 h |
| MLDEKSSNTASVVVLCTAPDEATAQDLAAKVLAEKLAACATLIPGATSLYYWEGKLEQEYEVQMILKTTVSHQQALLECLKSHHPYQTPELLVLPVTHGDTDYLSWLNASLR | 4.37 h | 4.22 ± 1.7 h | 3.56 h |  | 3.26 ± 0.26 h |  |  | 7.25 h | 3.34 ± 0.39 h | 4.91 ± 0.15 h | 5.13 ± 0.32 h |  |
| MLDIDKSTVDFLVTENMVQEVEKVLSHDVPLVHAIVEEMVKRDIDRIYFVACGSPLNAAQTAKHLADRFSDLQVYAISGWEFCDNTPYRLDDRCAVIGVSDYGKTEEVIKALELGRACGALTAAFTKRADSPITSAAEFSIDYQADCIWEIHLLLCYSVVLEMITRLAPNAEIGKIKNDLKQLPNALGHLVRTWEEKGRQLGELASQWPMIYTVAAGPLRPLGYKEGIVTLMEFTWTHGCVIESGEFRHGPLEIVEPGVPFLFLLGNDESRHTTERAINFVKQRTDNVIVIDYAEISQGLHPWLAPFLMFVPMEWLCYYLSIYKDHNPDERRYYGGLVEY [P0AC00] |  |  |  |  |  |  | 2.37 ± 0.41 h | 2.71 h |  |  |  |  |
| MLDKIDRKLLALLQQDCTLSLQALAEAVNLTTTPCWKRLKRLEDDGILIGKVALLDPEKIGLGLTAFVLIKTQHHSSEWYCRFVTVVTEMPEVLGFWRMAGEYDYLMRVQVADMKRYDEFYKRLVNSVPGLSDVTSSFAMEQIKYTTSLPIE [P0ACJ5] | 5.92 ± 0.82 h | 4.67 ± 0.26 h | 4.43 ± 1.7 h | 5.95 h | 5.08 ± 0.24 h | 3.37 ± 0.6 h | 5.09 ± 0.47 h | 8.43 ± 3.3 h | 4.34 ± 0.2 h | 9.01 ± 4.2 h | 4.45 h | 10.3 ± 3.2 h |
| MLDKLDAALRFQQEALNLRAQRQEVLAANIANADTPGYQARDIDFASELKKVMQRGRDATSVVALTMTSTQHIPAQALTPPTAELQYRIPDQPSLDGNTVDMDRERTQFADNSLQYQMSLSALSGQIKGMMNVLQSGN [P0ABW9] |  |  |  |  |  | 1.32 h |  |  |  |  |  |  |
| MLDKLRSRIVHLGPSLLSVPVKLTPFALKRQVLEQVLSWQFRQALDDGELEFLEGRWLSIHVRDIDLQWFTSVVNGKLVVSQNAQADVSFSADASDLLMIAARKQDPDTLFFQRRLVIEGDTELGLYVKNLMDAIELEQMPKALRMMLLQLADFVEAGMKTAPETKQTSVGEPC | 3.71 ± 1.3 h | 2.5 h |  |  | 0.825 ± 0.014 h | 0.352 ± 0.048 h |  |  |  |  | 0.825 h |  |
| MLDLFADAEPWQEPLAAGAVILRRFAFNAAEQLIRDINDVASQSPFRQMVTPGGYTMSVAMTNCGHLGWTTHRQGYLYSPIDPQTNKPWPAMPQSFHNLCQRAATAAGYPDFQPDACLINRYAPGAKLSLHQDKDEPDLRAPIVSVSLGLPAIFQFGGLKRNDPLKRLLLEHGDVVVWGGESRLFYHGIQPLKAGFHPLTIDCRYNLTFRQAGKKE |  | 4.32 h | 2.76 h | 3.17 h | 3.02 ± 0.09 h |  |  |  | 2.87 ± 0.47 h | 4.66 ± 0.55 h | 3.76 ± 0.13 h | 5.89 h |
| MLEEYRKHVAERAAEGIAPKPLDANQMAALVELLKNPPAGEEEFLLDLLTNRVPPGVDEAAYVKAGFLAAIAKGEAKSPLLTPEKAIELLGTMQGGYNIHPLIDALDDAKLAPIAAKALSHTLLMFDNFYDVEEKAKAGNEYAKQVMQSWADAEWFLNRPALAEKLTVTVFKVTGETNTDDLSPAPDAWSRPDIPLHALAMLKNAREGIEPDQPGVVGPIKQIEALQQKGFPLAYVGDVVGTGSSRKSATNSVLWFMGDDIPHVPNKRGGGLCLGGKIAPIFFNTMEDAGALPIEVDVSNLNMGDVIDVYPYKGEVRNHETGELLATFELKTDVLIDEVRAGGRIPLIIGRGLTTKAREALGLPHSDVFRQAKDVAESDRGFSLAQKMVGRACGVKGIRPGAYCEPKMTSVGSQDTTGPMTRDELKDLACLGFSADLVMQSFCHTAAYPKPVDVNTHHTLPDFIMNRGGVSLRPGDGVIHSWLNRMLLPDTVGTGGDSHTRFPIGISFPAGSGLVAFAAATGVMPLDMPESVLVRFKGKMQPGITLRDLVHAIPLYAIKQGLLTVEKKGKKNIFSGRILEIEGLPDLKVEQAFELTDASAERSAAGCTIKLNKEPIIEYLNSNIVLLKWMIAEGYGDRRTLERRIQGMEKWLANPELLEADADAEYAAVIDIDLADIKEPILCAPNDPDDARPLSAVQGEKIDEVFIGSCMTNIGHFRAAGKLLDAHKGQLPTRLWVAPPTRMDAAQLTEEGYYSVFGKSGARIEIPGCSLCMGNQARVADGATVVSTSTRNFPNRLGTGANVFLASAELAAVAALIGKLPTPEEYQTYVAQVDKTAVDTYRYLNFNQLSQYTEKADGVIFQTAV | 5.12 ± 0.25 h | 3.86 ± 0.1 h | 3.56 ± 0.021 h | 3.3 ± 0.063 h | 2.96 ± 0.046 h | 2.579 ± 0.021 h | 4.71 ± 0.057 h | 7.2 ± 0.21 h | 3.578 ± 0.02 h | 4.92 ± 0.14 h | 3.56 ± 0.094 h | 5.84 ± 0.098 h |
| MLELNAKTTALVVIDLQEGILPFAGGPHTADEVVNRAGKLAAKFRASGQPVFLVRVGWSADYAEALKQPVDAPSPAKVLPENWWQHPAALGATDSDIEIIKRQWGAFYGTDLELQLRRRGIDTIVLCGISTNIGVESTARNAWELGFNLVIAEDACSAASAEQHNNSINHIYPRIARVRSVEEILNAL [P0ADI7] | 5.53 ± 0.15 h | 5.05 ± 0.3 h | 4.968 ± 0.024 h |  | 5.08 ± 0.54 h | 3.07 ± 0.33 h | 5.75 ± 0.29 h | 10.9 ± 0.94 h | 5.19 ± 0.59 h | 9.838 ± 0.087 h | 5.81 ± 0.12 h | 12.7 ± 0.69 h |
| MLFTLKKVIGNMLLPLPLMLLIIGAGLALLWFSRFQKTGKIFISIGWLALLLLSLQPVADRLLRPIESTYPTWNNSQKVDYIVVLGGGYTWNPQWAPSSNLINNSLPRLNEGIRLWRENPGSKLIFTGGVAKTNTVSTAEVGARVAQSLGVPREQIITLDLPKDTEEEAAAVKQAIGDAPFLLVTSASHLPRAMIFFQQEGLNPLPAPANQLAIDSPLNPWERAIPSPVWLMHSDRVGYETLGRIWQWLKGSSGEPRQE [P0AB01] | 6.15 ± 0.43 h | 6.08 ± 0.23 h |  | 5.87 ± 0.097 h | 5.72 ± 0.58 h | 3.28 ± 0.37 h | 5.4 ± 0.28 h | 10.5 ± 4.9 h | 6.09 ± 0.25 h |  | 6.876 ± 0.0024 h | 10.6 ± 2.9 h |
